Assay results reported in patent US20070254831A1 (published 2007).
Read-outs that look alike come from different tables or passages of the source. One block for each binder: values may come before it. Bridge positions count the residues as written; N and C are the ends. Square brackets hold non-standard residues; d marks the D form. Ends that are not written are not given here.

Assays:
[1] = target: T1, soluble human FcRn (human, UniProt P55899 24-297; P61769 21-119, biotinylated (Sulfo-NHS-LC-Biotin) in the ELISA; amine-coupled to CM5 chip in SPR); assay: ELISA, competitor human IgG
T1 construct: also called shFcRn; biotinylated shFcRn
Experimental: (§1) The wells were coated with 100 μl/well of 1 μg/ml biotinylated-shFcRn in Buffer A. The plate was sealed and incubated at 37° C. for 2 hours. Afterwards, the plate washed with 200 μl/well of Buffer B (Buffer B: 100 mM MES pH 6, 150 mM NaCl, 0.5% BSA IgG-free (Jackson ImmunoResearch, West Grove, Pa.), 0.05% Tween-20). […] To allow for mixing, the plate was rocked for 2 minutes, sealed and incubated at 37° C. for 2 hours. […] The plate was covered, incubated for 30 minutes at room temperature and washed 4 times with 200 μl/well of ice-cold buffer B. SureBlue TMB substrate solution (100 μl/well, KPL, Gaithersburg, Md.) was added and the plate was allowed to incubate at room temperature until color developed, which took 5 to 10 minutes. Once color developed, 100 μl/well of TMB stop solution (KPL, Gaithersburg, Md.) was added and the absorbance was measured at 450 nm. The data was plotted as absorbance vs. peptide concentration to derive the inhibitory concentration 50% (IC₅₀) values.

[2] = target: T1, soluble human FcRn; assay: ELISA, competitor human IgG; remark: listed apart in the source
Experimental: as §1

[3] = target: T1, soluble human FcRn; assay: ELISA, competitor human IgG; remark: listed apart in the source
[4] = target: T1, soluble human FcRn; assay: SPR, pH 6
Experimental: (§2) The following steps were performed to cross-link soluble human or cynomolgus FcRn to the dextran surface of a CM5 sensor chip (Biacore AB, Uppsala, Sweden) by an amine coupling reaction involving 1-ethyl-(3-dimethylaminopropyl)-carbodiimide hydrochloride (EDC) (Biacore AB, Uppsala, Sweden) and N-hydroxysuccinimide (NHS) (Biacore AB, Uppsala, Sweden) as recommended by Biacore (BIAapplications Handbook, version AB, section 4.2, Biacore AB, Uppsala, Sweden). […] Residual sites on the FcRn flow cell were blocked with 1 M ethanolamine hydrochloride pH 8.5 (Biacore AB, Uppsala, Sweden). A control flow cell was blocked with ethanolamine for reference subtraction. For analysis of the monomeric peptides, FcRn was coated to a final density of 4000-5000 response units (RU). For analysis of the peptide dimers, FcRn was coated to a density of 2000-2500 RU. All SPR measurements were performed using a BIACORE 3000 Instrument (Biacore AB Uppsala, Sweden). For measurements done at either pH 6 or pH 7.4, experiments were performed in 50 mM phosphate, 100 mM sodium chloride, 0.01% surfactant P20 (Biacore AB, Uppsala, Sweden).
(§3) Ten, 2-fold dilutions of the peptide were injected over the FcRn-CM5 chip at a rate of 20 μl/min for 2 min. The peptide was dissociated from the chip for 2.5 minutes with buffer. Any remaining peptide was removed from the chip with a 30 second injection of HBS-P buffer (Biacore AB, Uppsala, Sweden) at a rate of 30 μl/min. Sensorgrams were generated and analyzed using BiaEval software version 3.1 (Biacore AB, Uppsala, Sweden). The equilibrium RU observed for each injection was plotted against concentration. The equilibrium KD values were derived by analysis of the plots using the steady state affinity model included in the BiaEval software.

[5] = target: T1, soluble human FcRn; assay: ELISA, competitor human IgG; remark: listed apart in the source
Experimental: as §1

[6] = target: T1, soluble human FcRn; assay: SPR, pH 6; remark: listed apart in the source
Experimental: as §2, §3

[7] = target: T1, soluble human FcRn; assay: SPR, pH 7.4
Experimental: as §2, §3

[8] = target: T1, soluble human FcRn; assay: ELISA, competitor human IgG; remark: listed apart in the source
Experimental: as §1

[9] = target: T1, soluble human FcRn; assay: ELISA, competitor human IgG; remark: listed apart in the source
Experimental: as §1

[10] = target: T1, soluble human FcRn; assay: SPR, pH 6; remark: listed apart in the source
Experimental: as §2, §3

Kd [4]: 19 µM
IC50 [1]: 60 µM
Binder: QRFXTGHXGGLYPCNGP (Pen at 4; 3-PyridylAla at 8; disulfide; C-terminal amide) [Peptide No. 59]

IC50 [5]: 1.3 µM
Kd [6]: 0.067 µM
Kd [7]: 0.28 µM
B5: Peptide No. 268 (peptide)
peptide: RFXTGXFGGLYPC
modifications: Pen at 3; 4-PyridylAla at 6; Sar at 9; NMeLeu at 10; disulfide; C-terminal amide

IC50 [5]: 45 µM
Kd [6]: 2 µM
Kd [7]: 3 µM
B6: Peptide No. 251 (peptide)
peptide: RFXTGXFGGLYPC
modifications: not fully specified; Pen at 3; ThienylAla at 6; Sar at 9; NMeLeu at 10; disulfide; C-terminal amide

IC50 [8]: 18 µM
Binder: QRFCTGHFGGLYPXNGP (Pen at 14; disulfide; C-terminal amide) [Peptide No. 33]

IC50 [9]: > 125 µM
Binder: QRFCTAHFGGLYPCNGP-NH2 (disulfide 4-14 (inferred)) [SEQ ID NO:28]

IC50 [9]: > 125 µM
Binder: QRFCTGHAGGLYPCNGP-NH2 (disulfide 4-14 (inferred)) [SEQ ID NO:30]

IC50 [1]: 32 µM
Binder: RFXTGHXGGLYPC (Pen at 3; 3,3-Di-Phe at 7; disulfide; C-terminal amide) [Peptide No. 224]

IC50 [5]: 5.5 µM
Kd [6]: 0.5 µM
Kd [7]: 0.5 µM
Binder: RFXTGRFGGLYPC (Pen at 3; Sar at 9; NMeLeu at 10; disulfide; C-terminal amide) [Peptide No. 256]

IC50 [2]: 23 µM
B8: Peptide No. 198 (peptide)
peptide: RFXTGHFXLYPC
modifications: Pen at 3; X at 8 = 5,5-bicyclic dipeptide mimic (drawing CHEM-US-00086); disulfide; C-terminal amide

IC50 [1]: 3.7 µM
Binder: RFXTGHXGGLYPC (Pen at 3; 3-Cl-Phe at 7; disulfide; C-terminal amide) [Peptide No. 222]

Kd [4]: 70 µM
Binder: QRFXTGHXGGLYPCNGP (Pen at 4; pentafluoro-Phe at 8; disulfide; C-terminal amide) [Peptide No. 57]

IC50 [5]: 1.2 µM
Kd [6]: 0.064 µM
Kd [7]: 0.26 µM
Binder: RFXTGXFGGLYPC (Pen at 3; 3PyridylAla at 6; Sar at 9; NMeLeu at 10; disulfide; C-terminal amide) [Peptide No. 250]

IC50 [3]: 230 µM
B9: Peptide No. 176 (peptide)
peptide: QRFVTGHFG[dP]YYPANGP-NH2
modifications: N-terminus assumed
SMILES: CC(C)[C@H](NC(=O)[C@H](Cc1ccccc1)NC(=O)[C@H](CCCNC(=N)N)NC(=O)[C@@H](N)CCC(N)=O)C(=O)N[C@H](C(=O)NCC(=O)N[C@@H](Cc1c[nH]cn1)C(=O)N[C@@H](Cc1ccccc1)C(=O)NCC(=O)N1CCC[C@@H]1C(=O)N[C@@H](Cc1ccc(O)cc1)C(=O)N[C@@H](Cc1ccc(O)cc1)C(=O)N1CCC[C@H]1C(=O)N[C@@H](C)C(=O)N[C@@H](CC(N)=O)C(=O)NCC(=O)N1CCC[C@H]1C(N)=O)[C@@H](C)O

IC50 [3]: 49 µM
B10: Peptide No. 190 (peptide)
peptide: QRFVTGHFG[dP]WYPINGP-NH2
modifications: N-terminus assumed
SMILES: CC[C@H](C)[C@H](NC(=O)[C@@H]1CCCN1C(=O)[C@H](Cc1ccc(O)cc1)NC(=O)[C@H](Cc1c[nH]c2ccccc12)NC(=O)[C@H]1CCCN1C(=O)CNC(=O)[C@H](Cc1ccccc1)NC(=O)[C@H](Cc1c[nH]cn1)NC(=O)CNC(=O)[C@@H](NC(=O)[C@@H](NC(=O)[C@H](Cc1ccccc1)NC(=O)[C@H](CCCNC(=N)N)NC(=O)[C@@H](N)CCC(N)=O)C(C)C)[C@@H](C)O)C(=O)N[C@@H](CC(N)=O)C(=O)NCC(=O)N1CCC[C@H]1C(N)=O

Kd [4]: 270 µM
Binder: QRFXTGHXGGLYPCNGP (Pen at 4; PheNHAc at 8; disulfide; C-terminal amide) [Peptide No. 94]

IC50 [1]: 26 µM
Binder: QRFXTGHWGGLYPCNGP (Pen at 4; disulfide; C-terminal amide) [Peptide No. 95]

Kd [6]: 0.074 µM
Kd [7]: 0.073 µM
Binder: RFXTGXFGGLYPC (Pen at 3; 4GuanylPhe at 6; Sar at 9; NMeLeu at 10; disulfide; C-terminal amide) [Peptide No. 257]

IC50 [3]: 100 µM
B13: Peptide No. 210 (peptide)
peptide: RFVTGHFG[dP]WYPANGP-NH2
modifications: N-terminus assumed
SMILES: CC(C)[C@H](NC(=O)[C@H](Cc1ccccc1)NC(=O)[C@@H](N)CCCNC(=N)N)C(=O)N[C@H](C(=O)NCC(=O)N[C@@H](Cc1c[nH]cn1)C(=O)N[C@@H](Cc1ccccc1)C(=O)NCC(=O)N1CCC[C@@H]1C(=O)N[C@@H](Cc1c[nH]c2ccccc12)C(=O)N[C@@H](Cc1ccc(O)cc1)C(=O)N1CCC[C@H]1C(=O)N[C@@H](C)C(=O)N[C@@H](CC(N)=O)C(=O)NCC(=O)N1CCC[C@H]1C(N)=O)[C@@H](C)O

Kd [4]: 18 µM
IC50 [1]: 100 µM
Binder: QRFXTGHXGGLYPCNGP (Pen at 4; 4-methoxy-Phe at 8; disulfide; C-terminal amide) [Peptide No. 56]

IC50 [2]: 2.2 µM
Binder: RFXTGHFXLYPC (Pen at 3; X at 8 = 6,5-bicyclic dipeptide mimic; disulfide; C-terminal amide) [Peptide No. 204]

Further lines, the binder ahead of its results:

Binder: RFXTGHXGGLYPC (Pen at 3; 2-Cl-Phe at 7; disulfide; C-terminal amide) [Peptide No. 221]
IC50 [1]: 4 µM

B1: Peptide No. 181 (peptide)
peptide: RFXTGHFXLYPC
modifications: Pen at 3; X at 8 = 3-amino-N-1-carboxymethyl-2,3,4,5-tetrahydro-1H-[1]-benzazepine-2-one (drawing CHEM-US-00084); disulfide; C-terminal amide
IC50 [2]: 1.2 µM

B2: Peptide No. 193 (peptide)
peptide: RFXTGHFXLYPC
modifications: Pen at 3; X at 8 = (3S)-3-amino-2-oxo-1-piperidine-acetic acid; disulfide; C-terminal amide
IC50 [2]: 7.3 µM

B3: Peptide No. 80 (as printed in Table 18) (peptide)
peptide: RFXTGHFXLYPC
modifications: Pen at 3; X at 8 = 3-amino-N-1-carboxymethyl-2,3,4,5-tetrahydro-1H-[1]-benzazepine-2-one (drawing CHEM-US-00083); disulfide; C-terminal amide
IC50 [2]: 159 µM

B4: Peptide No. 167 (peptide)
peptide: QRFVTGHFG[dP]LYPVANGP-NH2
modifications: N-terminus assumed
SMILES: CC(C)C[C@H](NC(=O)[C@H]1CCCN1C(=O)CNC(=O)[C@H](Cc1ccccc1)NC(=O)[C@H](Cc1c[nH]cn1)NC(=O)CNC(=O)[C@@H](NC(=O)[C@@H](NC(=O)[C@H](Cc1ccccc1)NC(=O)[C@H](CCCNC(=N)N)NC(=O)[C@@H](N)CCC(N)=O)C(C)C)[C@@H](C)O)C(=O)N[C@@H](Cc1ccc(O)cc1)C(=O)N1CCC[C@H]1C(=O)N[C@H](C(=O)N[C@@H](C)C(=O)N[C@@H](CC(N)=O)C(=O)NCC(=O)N1CCC[C@H]1C(N)=O)C(C)C
notes: printed with -VA- before NGP
IC50 [3]: 93 µM

Binder: QRFXTGHXGGLYPCNGP (Pen at 4; 2-napthylalanine at 8; disulfide; C-terminal amide) [Peptide No. 62]
Kd [4]: 11 µM
IC50 [1]: 90 µM

Binder: QRFXTGHXGGLYPCNGP (Pen at 4; 3-MePhe at 8; disulfide; C-terminal amide) [Peptide No. 89]
Kd [4]: 0.67 µM
IC50 [1]: 4.1 µM

Binder: QRFXTGHXGGLYPCNGP (Pen at 4; 4-amino-Phe at 8; disulfide; C-terminal amide) [Peptide No. 55]
Kd [4]: 1 µM

B7: Peptide No. 259 (peptide)
peptide: RFXTGXFGGLYPC
modifications: not fully specified; Pen at 3; His(Me) (mono-methylated histidine) at 6; disulfide; C-terminal amide
IC50 [5]: 2.9 µM
Kd [6]: 0.14 µM
Kd [7]: 0.38 µM

Binder: QRFCTGHFGALYPCNGP-NH2 (disulfide 4-14 (inferred)) [SEQ ID NO:32]
IC50 [9]: > 125 µM

Binder: QRFCTGHFGGLAPCNGP-NH2 (disulfide 4-14 (inferred)) [SEQ ID NO:34]
IC50 [9]: > 125 µM

Binder: QRFCTGAFGGLYPCNGP-NH2 (disulfide 4-14 (inferred)) [SEQ ID NO:29]
IC50 [9]: > 125 µM

Binder: RFXTGKFGGLYPC (Pen at 3; Sar at 9; NMeLeu at 10; disulfide; C-terminal amide) [Peptide No. 255]
IC50 [5]: 40 µM
Kd [6]: 1.3 µM
Kd [7]: 1.1 µM

Binder: QRFXTGHXGGLYPCNGP (Pen at 4; 4-MePhe at 8; disulfide; C-terminal amide) [Peptide No. 90]
Kd [4]: 0.2 µM

Binder: RFXTGXFGGLYPC (Pen at 3; His(Me)2 (di-methylated histidine) at 6; disulfide; C-terminal amide) [Peptide No. 260]
IC50 [5]: 4.4 µM
Kd [6]: 0.19 µM
Kd [7]: 0.46 µM

Binder: QRFXTGHXGGLYPCNGP (Pen at 4; 2-MePhe at 8; disulfide; C-terminal amide) [Peptide No. 88]
Kd [4]: 0.2 µM
IC50 [1]: 1 µM

Binder: QRFXTGHFGGLYPCNGP (Pen at 4; Sar at 9; disulfide; C-terminal amide) [Peptide No. 111]
Kd [10]: 2 µM

B11: Peptide No. 239 (peptide)
peptide: RFXTGHFXLYPC
modifications: Pen at 3; X at 8 = 3(S)-3-amino-2-oxo-1-azepine acetic acid; NMeLeu at 9; disulfide; C-terminal amide
IC50 [2]: 0.62 µM

B12: Peptide No. 264 (peptide)
peptide: RFXTGXFGGLYPC
modifications: Pen at 3; 4-PiperidylAla at 6; Sar at 9; NMeLeu at 10; disulfide; C-terminal amide
IC50 [5]: 85 µM
Kd [6]: 5.2 µM
Kd [7]: 6.4 µM

Binder: QRFXTGHXGGLYPCNGP (Pen at 4; 2-pyridylalanine at 8; disulfide; C-terminal amide) [Peptide No. 58]
IC50 [1]: 90 µM
